The record followed here is US20220041718A1 (AUTOLUS, published 2022).

Test [1] concerns the target T1, Recombinant purified TRBC1 (human, UniProt P01850 1-129, limits assumed).
T1 construct: Construct not described (may be a soluble TCR carrying TRBC1); also called TCR beta constant region 1; soluble recombinant biotinylated TRBC1
Kind of test: SPR, IgG captured on anti-human Fc, TRBC1 as analyte. An excerpt:
(§1) A series S CM5 sensor chip was immobilised via amine coupling, with an anti-human Fc capture antibody to a density of 9000-10000 RU, using a Biacore T200 instrument. HBS-P+ buffer was used as running buffer in all experimental conditions. The test anti-TRBC2 antibodies (Table 1) were captured on flow cells 2, 3 and 4 to a density of 100-300 RU. Recombinant purified TRBC1 or TRBC2 at known concentrations were used as the ‘analyte’ and injected over the respective flow cells with 150s contact time and 300s dissociation at 30 μl/minute of flow rate. In each experiment, flow cell 1 was unmodified and used for reference subtraction. A ‘0 concentration’ sensorgram of buffer alone was used as a double reference subtraction to factor for drift. Data were fit to a 1:1 Langmuir binding model. Since a capture system was used, a local Rₘₐₓ parameter was used for the data fitting in each case.

Test [2] deals with T2, Recombinant purified TRBC2 (human, UniProt A0A5B9 1-129, limits assumed).
T2 construct: Construct not described (may be a soluble TCR carrying TRBC2); also called TCR beta constant region 2; soluble recombinant biotinylated TRBC2
Put plainly: SPR, IgG captured on anti-human Fc, TRBC2 as analyte.
From the text: as §1

T1 sequence (P01850 1-129 limits assumed): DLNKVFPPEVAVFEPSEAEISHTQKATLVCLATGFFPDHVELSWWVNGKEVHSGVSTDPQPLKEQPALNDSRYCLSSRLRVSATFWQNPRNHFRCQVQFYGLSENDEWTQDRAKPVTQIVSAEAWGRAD
T2 sequence (A0A5B9 1-129 limits assumed): as the sequence (P01850 1-129 limits assumed) above, with N3K, K4N, E9K, F36Y counted along it

B1: hJovi-1 variant IgG, VH T28K, Y32F, A100N, N103F; VL unmutated (antibody, V domains shown)
VH: QVQLVQSGAEVKKPGASVKVSCKASGYKFTGFVMHWVRQAPGQGLEWMGFINPYNDDIQSNERFRGRVTMTRDTSISTAYMELSRLRSDDTAVYYCARGNGYFFDGAYRFFDFWGQGTMVTVSS
VL: DIVMTQSPLSLPVTPGEPASISCRSSQRLVHSNGNTYLHWYLQKPGQSPRLLIYRVSNRFPGVPDRFSGSGSGTDFTLKISRVEAEDVGVYYCSQSTHVPYTFGQGTKLEIK
notes: IgG format
B1: the equilibrium dissociation constant (Kd) is 1060 nM in test [1] and 270 nM in test [2].

B2: hJovi-1 variant IgG, VH T28K, Y32F, A100N, N103L; VL unmutated (antibody, V domains shown)
VH: QVQLVQSGAEVKKPGASVKVSCKASGYKFTGFVMHWVRQAPGQGLEWMGFINPYNDDIQSNERFRGRVTMTRDTSISTAYMELSRLRSDDTAVYYCARGNGYLFDGAYRFFDFWGQGTMVTVSS
VL: DIVMTQSPLSLPVTPGEPASISCRSSQRLVHSNGNTYLHWYLQKPGQSPRLLIYRVSNRFPGVPDRFSGSGSGTDFTLKISRVEAEDVGVYYCSQSTHVPYTFGQGTKLEIK
notes: IgG format
Turning to B2, the Kd in test [1] was determined as 1280 nM; in test [2] it was 302 nM.

B3: hJovi-1 variant IgG, VH T28K, Y32F, A100N, N103M; VL N35Y (antibody, V domains shown)
VH: QVQLVQSGAEVKKPGASVKVSCKASGYKFTGFVMHWVRQAPGQGLEWMGFINPYNDDIQSNERFRGRVTMTRDTSISTAYMELSRLRSDDTAVYYCARGNGYMFDGAYRFFDFWGQGTMVTVSS
VL: DIVMTQSPLSLPVTPGEPASISCRSSQRLVHSNGYTYLHWYLQKPGQSPRLLIYRVSNRFPGVPDRFSGSGSGTDFTLKISRVEAEDVGVYYCSQSTHVPYTFGQGTKLEIK
notes: IgG format
For B3, the Kd turned out to be 733 nM in test [1] and 172 nM in test [2].

B4: hJovi-1 variant IgG, VH T28K, Y32F, A100N, N103M; VL unmutated (antibody, V domains shown)
VH: QVQLVQSGAEVKKPGASVKVSCKASGYKFTGFVMHWVRQAPGQGLEWMGFINPYNDDIQSNERFRGRVTMTRDTSISTAYMELSRLRSDDTAVYYCARGNGYMFDGAYRFFDFWGQGTMVTVSS
VL: DIVMTQSPLSLPVTPGEPASISCRSSQRLVHSNGNTYLHWYLQKPGQSPRLLIYRVSNRFPGVPDRFSGSGSGTDFTLKISRVEAEDVGVYYCSQSTHVPYTFGQGTKLEIK
notes: IgG format
On to B4, for which the values for the Kd in test [1] and in test [2] were 376 nM and 83.6 nM, respectively.

B5: hJovi-1 variant IgG, VH T28K, Y32F, A100N, N103M; VL N35M (antibody, V domains shown)
VH: QVQLVQSGAEVKKPGASVKVSCKASGYKFTGFVMHWVRQAPGQGLEWMGFINPYNDDIQSNERFRGRVTMTRDTSISTAYMELSRLRSDDTAVYYCARGNGYMFDGAYRFFDFWGQGTMVTVSS
VL: DIVMTQSPLSLPVTPGEPASISCRSSQRLVHSNGMTYLHWYLQKPGQSPRLLIYRVSNRFPGVPDRFSGSGSGTDFTLKISRVEAEDVGVYYCSQSTHVPYTFGQGTKLEIK
notes: IgG format
As to B5, the Kd worked out at 648 nM in test [1] and 131 nM in test [2].

B6: hJovi-1 variant IgG, VH T28K, Y32F, A100N, N103M; VL N35R (antibody, V domains shown)
VH: QVQLVQSGAEVKKPGASVKVSCKASGYKFTGFVMHWVRQAPGQGLEWMGFINPYNDDIQSNERFRGRVTMTRDTSISTAYMELSRLRSDDTAVYYCARGNGYMFDGAYRFFDFWGQGTMVTVSS
VL: DIVMTQSPLSLPVTPGEPASISCRSSQRLVHSNGRTYLHWYLQKPGQSPRLLIYRVSNRFPGVPDRFSGSGSGTDFTLKISRVEAEDVGVYYCSQSTHVPYTFGQGTKLEIK
notes: IgG format
With B6, the values for the Kd in test [1] and in test [2] were 290 nM and 90.3 nM, respectively.

B7: hJovi-1 variant IgG, VH T28K, Y32F, A100N, N103H; VL unmutated (antibody, V domains shown)
VH: QVQLVQSGAEVKKPGASVKVSCKASGYKFTGFVMHWVRQAPGQGLEWMGFINPYNDDIQSNERFRGRVTMTRDTSISTAYMELSRLRSDDTAVYYCARGNGYHFDGAYRFFDFWGQGTMVTVSS
VL: DIVMTQSPLSLPVTPGEPASISCRSSQRLVHSNGNTYLHWYLQKPGQSPRLLIYRVSNRFPGVPDRFSGSGSGTDFTLKISRVEAEDVGVYYCSQSTHVPYTFGQGTKLEIK
notes: IgG format
Take B7: the Kd in test [1] turned out to be 2020 nM; in test [2], 416 nM.
